Km and Vmax data for three molecules are collected here from PMC9485241, “Biosynthesis of plant hemostatic dencichine in Escherichia coli” (Nature Communications, 2022).

Holding throughout (test): purified protein
The test system of one data set is NC[C@H](N)C(=O)O. As to conditions: oxalyl-CoA made in situ by excess PanE from 1 mM CoA, 1 mM NADP+, 1 mM glyoxylate, 50 mM Tris-HCl pH 7.5, 30 °C.
For another data set, the system named is O=C(O)CC(=O)C(=O)O. As to conditions: 0.18 mM MnCl2, 100 mM Tris-HCl pH 8.0.
Substrate in the data set “purified protein”: O=CC(=O)O
It is filed as biochemical, Saccharomyces cerevisiae. As to conditions: 2 mM cytochrome c, 100 mM sodium phosphate pH 7.5.

The Km is the substrate concentration at which the rate is half of its maximum. By Vmax is commonly meant the top rate of the reaction or transport when substrate is in excess.

For the molecule LsBAHD (Lathyrus sativus), in the data set with NC[C@H](N)C(=O)O, the Km is 520 µM and the maximum rate (Vmax) was 2.88 µM/min/mg.

With Fpoah (Fomitopsis palustris), in the data set on O=C(O)CC(=O)C(=O)O, the Michaelis constant (Km) amounted to 420 µM and the maximal velocity (Vmax) is 22.8 µM/min/mg.

B1: Scgloxdh (Cyb2p) (Saccharomyces cerevisiae S288C) (protein)
chain: EPKLDMNKQKISPAEVAKHNKPDDCWVVINGYVYDLTRFLPNHPGGQDVIKFNAGKDVTAIFEPLHAPNVIDKYIAPEKKLGPLQGSMPPELVCPPYAPGETKEDIARKEQLKSLLPPLDNIINLYDFEYLASQTLTKQAWAYYSSGANDEVTHRENHNAYHRIFFKPKILVDVRKVDISTDMLGSHVDVPFYVSATALCKLGNPLEGEKDVARGCGQGVTKVPQMISTLASCSPEEIIEAAPSDKQIQWYQLYVNSDRKITDDLVKNVEKLGVKALFVTVDAPSLGQREKDMKLKFSNTKAGPKAMKKTNVEESQGASRALSKFIDPSLTWKDIEELKKKTKLPIVIKGVQRTEDVIKAAEIGVSGVVLSNHGGRQLDFSRAPIEVLAETMPILEQRNLKDKLEVFVDGGVRRGTDVLKALCLGAKGVGLGRPFLYANSCYGRNGVEKAIEILRDEIEMSMRLLGVTSIAELKPDLLDLSTLKARTVGVPNDVLYNEVYEGPTLTEFEDA
B1: in the data set “purified protein”, the Km turned out to be 740 µM and the maximal velocity (Vmax) was 0.66 µM/min/mg.
